The results in this text go back to paper PMC6155126.

Data set [1] has as its target Ku70/80 (Ku70 subunit);Ku70/80 (Ku80 subunit);Pol λ WT (Homo sapiens;Homo sapiens;Homo sapiens, UniProt P12956;P13010;Q9UGP5 1-609;1-732;1-575, ||). In words: EMSA supershift; 20 nM Ku; EMSA: 50 mM Tris-HCl pH 7.5, 100 mM KCl, 2.5 mM MgCl2, 1 mM DTT, 4% glycerol, 0.05% Triton X-100, 0.1 mg/ml BSA, 10-20 nM DNA, 30 min at 25 °C; 4-5% native PAGE, 0.5x TBE, 4 °C. The following applies: protein: recombinant;recombinant;recombinant; tags: FLAG;FLAG;FLAG; copies: 1;1;1; label: 5' IRDye 700 on one strand; 5-nt gap. (In general: In EMSA bound probe runs differently from free probe, usually more slowly.)

Data set [2] deals with Ku70/80 (Ku70 subunit);Ku70/80 (Ku80 subunit);Pol λ WT;PAXX (cleaved) (Homo sapiens;Homo sapiens;Homo …, UniProt P12956;P13010;Q9UGP5;Q9BUH6 1-609;1-732;1-575;1-204, |||). In words: EMSA supershift; 20 nM Ku, 0.5 µM PAXX; EMSA: 50 mM Tris-HCl pH 7.5, 100 mM KCl, 2.5 mM MgCl2, 1 mM DTT, 4% glycerol, 0.05% Triton X-100, 0.1 mg/ml BSA, 10-20 nM DNA, 30 min at 25 °C; 4-5% native PAGE, 0.5x TBE, 4 °C. The following applies: protein: recombinant;recombinant;recombinant;recombinant; tags: FLAG;FLAG;FLAG;GST tag cleaved (PreScission); copies: 1;1;1;2; label: 5' IRDye 700 on one strand; 5-nt gap.

The target in data set [3] is Ku70/80 (Ku70 subunit);Ku70/80 (Ku80 subunit);PAXX (cleaved) (Homo sapiens;Homo sapiens;Homo sapiens, UniProt P12956;P13010;Q9BUH6 1-609;1-732;1-204, ||). Described as above. The note with it: protein: recombinant;recombinant;recombinant; tags: FLAG;FLAG;GST tag cleaved (PreScission); copies: 1;1;2; label: 5' IRDye 700 on one strand; 5-nt gap.
Data set [4] has as its target Ku70/80 (Ku70 subunit);Ku70/80 (Ku80 subunit);Pol λ R57A/L60A (RL) (Homo sapiens;Homo sapiens;Homo sapiens, UniProt P12956;P13010;Q9UGP5 1-609;1-732;1-575, ||R57A;L60A). As to the kind of experiment: EMSA supershift; 20 nM Ku, 50 nM Pol λ-RL; mutant does not join DNA-bound Ku; EMSA: 50 mM Tris-HCl pH 7.5, 100 mM KCl, 2.5 mM MgCl2, 1 mM DTT, 4% glycerol, 0.05% Triton X-100, 0.1 mg/ml BSA, 10-20 nM DNA, 30 min at 25 °C; 4-5% native PAGE, 0.5x TBE, 4 °C. The note with it: protein: recombinant;recombinant;recombinant, tags: FLAG;FLAG;FLAG, copies: 1;1;1, label: IRDye 700 at 5' end of S5, 5-nt gap (CTATT of S4 unpaired), blunt outer ends.

Sequence of Ku70/80 (Ku70 subunit);Ku70/80 (Ku80 subunit);Pol λ WT (P12956 whole entry, chain 1 of 3): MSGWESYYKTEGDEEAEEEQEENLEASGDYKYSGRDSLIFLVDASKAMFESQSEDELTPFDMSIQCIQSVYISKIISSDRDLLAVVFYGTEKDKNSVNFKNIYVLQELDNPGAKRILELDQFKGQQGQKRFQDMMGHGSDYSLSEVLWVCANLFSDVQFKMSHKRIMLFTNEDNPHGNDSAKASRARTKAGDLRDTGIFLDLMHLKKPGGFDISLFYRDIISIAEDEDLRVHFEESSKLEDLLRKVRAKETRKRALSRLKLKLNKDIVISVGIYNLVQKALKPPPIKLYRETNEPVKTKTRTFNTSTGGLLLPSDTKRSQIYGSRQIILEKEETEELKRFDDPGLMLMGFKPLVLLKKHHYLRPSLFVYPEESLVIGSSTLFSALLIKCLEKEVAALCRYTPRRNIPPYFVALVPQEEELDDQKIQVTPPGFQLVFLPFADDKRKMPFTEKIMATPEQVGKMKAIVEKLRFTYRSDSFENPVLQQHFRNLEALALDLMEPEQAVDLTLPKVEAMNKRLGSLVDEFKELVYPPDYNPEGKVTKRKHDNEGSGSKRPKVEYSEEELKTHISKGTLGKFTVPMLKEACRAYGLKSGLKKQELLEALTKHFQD
Sequence of Ku70/80 (Ku70 subunit);Ku70/80 (Ku80 subunit);Pol λ WT (P13010 whole entry, chain 2 of 3): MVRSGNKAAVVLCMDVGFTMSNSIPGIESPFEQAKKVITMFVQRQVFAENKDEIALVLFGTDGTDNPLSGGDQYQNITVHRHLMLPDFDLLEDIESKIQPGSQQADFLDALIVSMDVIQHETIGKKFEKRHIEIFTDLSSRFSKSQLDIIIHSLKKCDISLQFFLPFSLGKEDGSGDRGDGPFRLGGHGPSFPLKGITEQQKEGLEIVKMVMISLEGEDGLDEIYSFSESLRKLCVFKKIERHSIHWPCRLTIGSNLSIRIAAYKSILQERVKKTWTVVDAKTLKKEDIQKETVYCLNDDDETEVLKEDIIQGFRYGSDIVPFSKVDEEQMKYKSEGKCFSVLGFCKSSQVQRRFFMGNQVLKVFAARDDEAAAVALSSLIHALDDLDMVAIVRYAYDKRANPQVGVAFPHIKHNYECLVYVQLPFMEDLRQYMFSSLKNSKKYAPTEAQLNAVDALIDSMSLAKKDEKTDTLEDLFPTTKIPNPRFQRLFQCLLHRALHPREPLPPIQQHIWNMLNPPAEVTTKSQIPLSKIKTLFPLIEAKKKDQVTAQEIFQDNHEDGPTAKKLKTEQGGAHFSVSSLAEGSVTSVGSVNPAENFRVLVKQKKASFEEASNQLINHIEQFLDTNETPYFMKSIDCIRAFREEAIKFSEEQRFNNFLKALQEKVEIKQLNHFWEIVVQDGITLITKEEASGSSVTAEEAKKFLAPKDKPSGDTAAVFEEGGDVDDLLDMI
Sequence of Ku70/80 (Ku70 subunit);Ku70/80 (Ku80 subunit);Pol λ WT (Q9UGP5 whole entry, chain 3 of 3): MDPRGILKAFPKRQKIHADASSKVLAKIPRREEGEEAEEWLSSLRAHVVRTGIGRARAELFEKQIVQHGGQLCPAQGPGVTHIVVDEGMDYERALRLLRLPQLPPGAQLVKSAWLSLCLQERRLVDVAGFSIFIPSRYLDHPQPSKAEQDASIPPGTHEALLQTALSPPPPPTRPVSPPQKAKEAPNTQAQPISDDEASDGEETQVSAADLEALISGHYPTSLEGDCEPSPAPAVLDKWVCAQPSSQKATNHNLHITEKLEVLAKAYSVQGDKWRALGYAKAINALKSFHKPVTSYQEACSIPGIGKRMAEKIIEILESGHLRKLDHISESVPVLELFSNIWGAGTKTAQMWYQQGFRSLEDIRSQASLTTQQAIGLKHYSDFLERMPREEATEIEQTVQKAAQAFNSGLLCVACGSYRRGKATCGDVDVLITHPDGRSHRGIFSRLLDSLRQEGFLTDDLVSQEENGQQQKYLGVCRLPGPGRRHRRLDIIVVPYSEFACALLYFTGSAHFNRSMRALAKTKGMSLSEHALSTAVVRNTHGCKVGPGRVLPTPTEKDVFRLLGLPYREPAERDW
Sequence of Ku70/80 (Ku70 subunit);Ku70/80 (Ku80 subunit);Pol λ R57A/L60A (RL) (P12956 whole entry, chain 1 of 3): as the sequence (P12956 whole entry, chain 1 of 3) above
Sequence of Ku70/80 (Ku70 subunit);Ku70/80 (Ku80 subunit);Pol λ R57A/L60A (RL) (P13010 whole entry, chain 2 of 3): as the sequence (P13010 whole entry, chain 2 of 3) above
Sequence of Ku70/80 (Ku70 subunit);Ku70/80 (Ku80 subunit);Pol λ R57A/L60A (RL) (Q9UGP5 whole entry R57A/L60A, chain 3 of 3): as the sequence (Q9UGP5 whole entry, chain 3 of 3) above, with R57A, L60A counted along it

B1: 5nt-gapped dsDNA 30-mer (dsDNA)
DNA 1: ACTGGCCGTCGTTCTATTGTACTCACTGTGATC
DNA 2: GATCACAGTGAGTAC
DNA 3: AACGACGGCCAGT
For the molecule B1, the binding result in data set [1], in data set [2] and in data set [3] was “binds” each time.

B2: 5nt-gapped dsDNA 33-mer (dsDNA)
DNA 1: ACTGGCCGTCGTTCTATTGTACTCACTGTGATC
DNA 2: GATCACAGTGAGTAC
DNA 3: AACGACGGCCAGT
modifications: 5'-phosphate on the 13-mer
Regarding B2, the binding result in data set [4] is listed as “no binding”.
